Where two headings read alike, the source gives them in different places.
Key:
Nectin-4 on T-47D cells [1] = molecular target: T1, Nectin-4 on T-47D cells (human, UniProt Q96NY8 32-510); assay: FACS on T-47D cells, 10 µg/mL on ice, 0 h point of the endocytosis assay
T1 construct: whole, on cells; endogenous expression; also called T-47D cells positive for Nectin-4 expression
T1 sequence (looked up): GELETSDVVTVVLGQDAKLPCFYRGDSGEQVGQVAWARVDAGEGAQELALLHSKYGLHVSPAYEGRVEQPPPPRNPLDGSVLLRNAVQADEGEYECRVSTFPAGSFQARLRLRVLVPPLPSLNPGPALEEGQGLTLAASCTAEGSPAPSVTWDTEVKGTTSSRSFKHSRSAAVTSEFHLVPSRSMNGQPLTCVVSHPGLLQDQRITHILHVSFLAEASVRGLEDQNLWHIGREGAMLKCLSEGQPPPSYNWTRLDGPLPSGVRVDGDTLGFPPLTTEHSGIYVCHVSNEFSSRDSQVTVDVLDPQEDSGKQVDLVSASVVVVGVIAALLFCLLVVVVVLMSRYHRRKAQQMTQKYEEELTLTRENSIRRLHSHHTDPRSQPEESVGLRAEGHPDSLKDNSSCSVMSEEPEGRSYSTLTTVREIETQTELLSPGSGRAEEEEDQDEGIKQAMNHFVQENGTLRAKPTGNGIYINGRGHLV
Method: (§1) In this assay, the relative amount of antibodies remaining on the cell surface after co-incubation at 37° C. for a certain period of time was detected by FACS to reflect the endocytosis efficiency. The procedures are briefly described as follows: T-47D cells (human ductal breast cancer cells, derived from the Cell Bank of Chinese Academy of Sciences, Cat. No. TCHu 87); the antibodies were adjusted to 10 μg/mL and co-incubated with the cells on ice for 1 h; the cells were washed 3 times with pre-cooled PBS, and then placed at 37° C. and incubated for 0 h, 2 h and 4 h; 0.2% N₃Na was added to stop the endocytosis reaction; the cells were washed with PBS thrice, followed by the addition of the PE-labeled anti-human Fc secondary antibody (Invitrogen 12-4998-82); the cells were incubated at 4° C. for 30 min; the red fluorescence signal was detected on a flow cytometer.

[2] = molecular target: T2, hNectin-2 (ACRO, PV2-H52E2) (human, UniProt Q92692 32-360); assay: ELISA, antigen coated, HRP-labeled anti-human-Kappa secondary antibody
T2 construct: bought
T2 sequence (looked up): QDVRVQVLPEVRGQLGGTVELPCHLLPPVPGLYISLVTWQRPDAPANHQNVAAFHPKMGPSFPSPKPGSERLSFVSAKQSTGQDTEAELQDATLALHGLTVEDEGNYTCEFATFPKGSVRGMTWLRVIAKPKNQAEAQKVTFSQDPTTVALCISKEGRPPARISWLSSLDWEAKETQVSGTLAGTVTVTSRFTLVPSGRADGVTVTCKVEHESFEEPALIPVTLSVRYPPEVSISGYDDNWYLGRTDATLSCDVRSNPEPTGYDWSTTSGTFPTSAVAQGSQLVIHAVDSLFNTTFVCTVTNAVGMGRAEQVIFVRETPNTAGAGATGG
Method: (§2) The binding activity of intact antibodies was detected by ELISA. The procedures are briefly described as follows: the hNectin-4-His antigen protein of Example 1 was immobilized at a concentration of 1 μg/mL on a plate; the plate was blocked with skimmed milk powder overnight, and then, serially diluted antibodies of interest were added for co-incubation (antibodies in Table 9 were serially 2-fold diluted from 2 μg/mL; antibodies in Tables 10 and 11 were serially 3-fold diluted from 10 μg/mL) at room temperature for 2 h; then an HRP-labeled anti-human-kappa (Sigma, A7164) secondary antibody was added for co-incubation for 1 h, followed by the addition of TMB (Huzhou InnoReagents, TMB-S-001) for chromogenic reaction, and the reaction was stopped with 0.1 M H₂SO₄; after the absorbance at OD450 was read on a microplate reader, the binding EC₅₀ value for each antibody was calculated by four-parameter fitting, and the binding activities of the antibodies were compared.
(§3) In this assay, the binding of different antibodies to human Nectin-4 homologous proteins hNectin-1 (ACRO, PV1-H5223), hNectin-2 (ACRO, PV2-H52E2), hNectin-3 (ACRO, PV3-H52E4), and hNectin-4-His was detected by ELISA to determine the specificity of the antibodies. For the methodology and procedures, see Example 4. Antigens of interest ([…]) were immobilized; after blocking, serially diluted antibodies (2-fold serially diluted from […]) were added, and HRP-labeled anti-human-Kappa secondary antibody was added for chromogenic reaction.

[3] = molecular target: T3, hNectin-1 (ACRO, PV1-H5223) (human, UniProt Q15223 31-334); assay: as above
T3 construct: bought
T3 sequence (looked up): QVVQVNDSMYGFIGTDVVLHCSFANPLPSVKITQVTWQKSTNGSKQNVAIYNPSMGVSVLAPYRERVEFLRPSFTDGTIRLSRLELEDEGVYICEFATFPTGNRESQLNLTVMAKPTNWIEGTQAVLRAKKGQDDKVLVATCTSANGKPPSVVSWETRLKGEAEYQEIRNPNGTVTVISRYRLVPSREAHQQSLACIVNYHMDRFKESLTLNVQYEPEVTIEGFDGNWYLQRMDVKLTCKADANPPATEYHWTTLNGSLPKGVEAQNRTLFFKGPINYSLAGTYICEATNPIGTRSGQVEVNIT
Method: as §2, §3

Nectin-4 on T-47D cells [4] = molecular target: T1, Nectin-4 on T-47D cells; assay: FACS on T-47D cells, 10 µg/mL on ice, 0 h point of the endocytosis assay; remark: listed apart in the source
Method: as §1

B1: antibody 1F3 (antibody, human IgG1, kappa, V domains shown)
VH: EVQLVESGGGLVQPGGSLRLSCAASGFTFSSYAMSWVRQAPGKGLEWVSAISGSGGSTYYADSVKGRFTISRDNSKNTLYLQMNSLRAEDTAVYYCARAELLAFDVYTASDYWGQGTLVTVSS
VL: DIQMTQSPSSLSASVGDRVTITCRASQGISSYLAWYQQKPGKAPKLLIYAASSLQSGVPSRFSGSGSGTDFTLTISSLQPEDFATYYCQQHYTTPPTFGQGTKVEIKR
notes: intact antibody
With B1 the “MFI (0 h)” value (Nectin-4 on T-47D cells [1]) was 121000 MFI, the binding result [2] was “no binding (tested: 2000 ng/mL)” and the binding result [3] was “no binding (tested: 2000 ng/mL)”.

B2: antibody 1F3-1B1 (antibody, human IgG1, kappa, V domains shown)
VH: EVQLVESGGGLVQPGGSLRLSCAASGFTFGTYGMSWVRQAPGKGLEWVSGIKPGDSTTYYADSVKGRFTISRDNSKNTLYLQMNSLRAEDTAVYYCARAELLAFDVYTASDYWGQGTLVTVSS
VL: DIQMTQSPSSLSASVGDRVTITCRASQGISSYLAWYQQKPGKAPKLLIYAASSLQSGVPSRFSGSGSGTDFTLTISSLQPEDFATYYCQQHYTTPPTFGQGTKVEIKR
notes: intact antibody
With B2 the “MFI (0 h)” value (Nectin-4 on T-47D cells [4]) was 65300 MFI.

B3: antibody 1F3-1E1 (antibody, human IgG1, kappa, V domains shown)
VH: EVQLVESGGGLVQPGGSLRLSCAASGFSFDDYAMSWVRQAPGKGLEWVSIIYPTGSTNYYADSVKGRFTISRDNSKNTLYLQMNSLRAEDTAVYYCARAELLAFDVYTASDYWGQGTLVTVSS
VL: DIQMTQSPSSLSASVGDRVTITCRASQGISSYLAWYQQKPGKAPKLLIYAASSLQSGVPSRFSGSGSGTDFTLTISSLQPEDFATYYCQQHYTTPPTFGQGTKVEIKR
notes: intact antibody
For B3, the “MFI (0 h)” value (Nectin-4 on T-47D cells [4]) was 73400 MFI.

B4: antibody 1F3-1G11 (antibody, human IgG1, kappa, V domains shown)
VH: EVQLVESGGGLVQPGGSLRLSCAASGYSFTGYGMSWVRQAPGKGLEWVSGISPSGGTIGYADSVKGRFTISRDNSKNTLYLQMNSLRAEDTAVYYCARAELLAFDVYTASDYWGQGTLVTVSS
VL: DIQMTQSPSSLSASVGDRVTITCRASQGISSYLAWYQQKPGKAPKLLIYAASSLQSGVPSRFSGSGSGTDFTLTISSLQPEDFATYYCQQHYTTPPTFGQGTKVEIKR
notes: intact antibody
For B4, the “MFI (0 h)” value (Nectin-4 on T-47D cells [4]) was 60500 MFI.

B5: antibody 1F3-2B1 (antibody, human IgG1, kappa, V domains shown)
VH: EVQLVESGGGLVQPGGSLRLSCAASGYNFDNYAMSWVRQAPGKGLEWVSGIKPDSATTYYADSVKGRFTISRDNSKNTLYLQMNSLRAEDTAVYYCARAELLAFDVYTASDYWGQGTLVTVSS
VL: DIQMTQSPSSLSASVGDRVTITCRASQGISSYLAWYQQKPGKAPKLLIYAASSLQSGVPSRFSGSGSGTDFTLTISSLQPEDFATYYCQQHYTTPPTFGQGTKVEIKR
notes: intact antibody
For B5, the “MFI (0 h)” value (Nectin-4 on T-47D cells [4]) was 59400 MFI.

B6: antibody 1F3-2E8 (antibody, human IgG1, kappa, V domains shown)
VH: EVQLVESGGGLVQPGGSLRLSCAASGYSFSDYGMSWVRQAPGKGLEWVSWISPSKGSASYADSVKGRFTISRDNSKNTLYLQMNSLRAEDTAVYYCARAELLAFDVYTASDYWGQGTLVTVSS
VL: DIQMTQSPSSLSASVGDRVTITCRASQGISSYLAWYQQKPGKAPKLLIYAASSLQSGVPSRFSGSGSGTDFTLTISSLQPEDFATYYCQQHYTTPPTFGQGTKVEIKR
notes: intact antibody
With B6 the “MFI (0 h)” value (Nectin-4 on T-47D cells [4]) was 58200 MFI.

B7: antibody 1F3-2F3 (antibody, human IgG1, kappa, V domains shown)
VH: EVQLVESGGGLVQPGGSLRLSCAASGFNFSDYGMSWVRQAPGKGLEWVSRIDWDGGNTRYADSVKGRFTISRDNSKNTLYLQMNSLRAEDTAVYYCARAELLAFDVYTASDYWGQGTLVTVSS
VL: DIQMTQSPSSLSASVGDRVTITCRASQGISSYLAWYQQKPGKAPKLLIYAASSLQSGVPSRFSGSGSGTDFTLTISSLQPEDFATYYCQQHYTTPPTFGQGTKVEIKR
notes: intact antibody
With B7 the “MFI (0 h)” value (Nectin-4 on T-47D cells [4]) was 69000 MFI.

B8: antibody 10F4 (antibody, human IgG1, kappa, V domains shown)
VH: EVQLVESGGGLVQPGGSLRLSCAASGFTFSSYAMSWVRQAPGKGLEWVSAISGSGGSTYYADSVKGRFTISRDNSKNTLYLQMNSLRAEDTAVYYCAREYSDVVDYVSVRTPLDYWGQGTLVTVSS
VL: DIQMTQSPSSLSASVGDRVTITCRASQGISSYLAWYQQKPGKAPKLLIYAASSLQSGVPSRFSGSGSGTDFTLTISSLQPEDFATYYCQQHYTTPPTFGQGTKVEIKR
notes: intact antibody
For B8, the “MFI (0 h)” value (Nectin-4 on T-47D cells [1]) was 104000 MFI, the binding result [2] was “no binding (tested: 2000 ng/mL)” and the binding result [3] was “no binding (tested: 2000 ng/mL)”.

B9: antibody 3A10 (antibody, human IgG1, kappa, V domains shown)
VH: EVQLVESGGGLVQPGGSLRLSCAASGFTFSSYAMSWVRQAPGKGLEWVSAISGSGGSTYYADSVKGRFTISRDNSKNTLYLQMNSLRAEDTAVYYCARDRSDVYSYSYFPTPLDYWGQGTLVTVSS
VL: DIQMTQSPSSLSASVGDRVTITCRASQGISSYLAWYQQKPGKAPKLLIYAASSLQSGVPSRFSGSGSGTDFTLTISSLQPEDFATYYCQQHYTTPPTFGQGTKVEIKR
notes: intact antibody
With B9 the “MFI (0 h)” value (Nectin-4 on T-47D cells [1]) was 105000 MFI.

B10: antibody 10F4-1 (antibody, human IgG1, kappa, V domains shown)
VH: EVQLVESGGGLVQPGGSLRLSCAASGDSFTNYWMSWVRQAPGKGLEWVSGISQGGSYAYYADSVKGRFTISRDNSKNTLYLQMNSLRAEDTAVYYCAREYSDVVDYVSVRTPLDYWGQGTLVTVSS
VL: DIQMTQSPSSLSASVGDRVTITCRASQGISSYLAWYQQKPGKAPKLLIYAASSLQSGVPSRFSGSGSGTDFTLTISSLQPEDFATYYCQQHYTTPPTFGQGTKVEIKR
notes: intact antibody
In the case of B10, the “MFI (0 h)” value (Nectin-4 on T-47D cells [4]) is reported as 58600 MFI.

B11: antibody 10F4-3 (antibody, human IgG1, kappa, V domains shown)
VH: EVQLVESGGGLVQPGGSLRLSCAASGFSFGDFAMSWVRQAPGKGLEWVSVIDGHTAYNSYADSVKGRFTISRDNSKNTLYLQMNSLRAEDTAVYYCAREYSDVVDYVSVRTPLDYWGQGTLVTVSS
VL: DIQMTQSPSSLSASVGDRVTITCRASQGISSYLAWYQQKPGKAPKLLIYAASSLQSGVPSRFSGSGSGTDFTLTISSLQPEDFATYYCQQHYTTPPTFGQGTKVEIKR
notes: intact antibody
For B11, the “MFI (0 h)” value (Nectin-4 on T-47D cells [4]) was 61200 MFI.

B12: antibody 10F4-5 (antibody, human IgG1, kappa, V domains shown)
VH: EVQLVESGGGLVQPGGSLRLSCAASGFIFDGYDMSWVRQAPGKGLEWVSVIKDHGGYKFYADSVKGRFTISRDNSKNTLYLQMNSLRAEDTAVYYCAREYSDVVDYVSVRTPLDYWGQGTLVTVSS
VL: DIQMTQSPSSLSASVGDRVTITCRASQGISSYLAWYQQKPGKAPKLLIYAASSLQSGVPSRFSGSGSGTDFTLTISSLQPEDFATYYCQQHYTTPPTFGQGTKVEIKR
notes: intact antibody
With B12 the “MFI (0 h)” value (Nectin-4 on T-47D cells [4]) was 63400 MFI.

B13: antibody 1B4 (antibody, human IgG1, kappa, V domains shown)
VH: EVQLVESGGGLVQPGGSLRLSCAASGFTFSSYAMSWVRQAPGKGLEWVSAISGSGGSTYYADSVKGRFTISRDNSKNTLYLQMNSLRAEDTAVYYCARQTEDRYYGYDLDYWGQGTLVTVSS
VL: DIQMTQSPSSLSASVGDRVTITCRASQGISSYLAWYQQKPGKAPKLLIYAASSLQSGVPSRFSGSGSGTDFTLTISSLQPEDFATYYCQQHYTTPPTFGQGTKVEIKR
notes: intact antibody
In the case of B13, the “MFI (0 h)” value (Nectin-4 on T-47D cells [1]) is reported as 108000 MFI.

B14: antibody 10A4 (antibody, human IgG1, kappa, V domains shown)
VH: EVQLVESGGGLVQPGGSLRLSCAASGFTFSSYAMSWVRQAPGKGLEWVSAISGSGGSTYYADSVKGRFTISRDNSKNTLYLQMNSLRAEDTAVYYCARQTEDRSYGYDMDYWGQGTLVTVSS
VL: DIQMTQSPSSLSASVGDRVTITCRASQGISSYLAWYQQKPGKAPKLLIYAASSLQSGVPSRFSGSGSGTDFTLTISSLQPEDFATYYCQQHYTTPPTFGQGTKVEIKR
notes: intact antibody
With B14 the “MFI (0 h)” value (Nectin-4 on T-47D cells [1]) was 107000 MFI.

B15: reference antibody ASG-22 (antibody, human IgG1, kappa, V domains shown)
VH: EVQLVESGGGLVQPGGSLRLSCAASGFTFSSYNMNWVRQAPGKGLEWVSYISSSSSTIYYADSVKGRFTISRDNAKNSLSLQMNSLRDEDTAVYYCARAYYYGMDVWGQGTLVTVSS
VL: DIQMTQSPSSVSASVGDRVTITCRASQGISGWLAWYQQKPGKAPKFLIYAASTLQSGVPSRFSGSGSGTDFTLTISSLQPEDFATYYCQQANSFPPTFGGGTKVEIKR
For B15, the “MFI (0 h)” value (Nectin-4 on T-47D cells [1]) was 107000 MFI and the “MFI (0 h)” value (Nectin-4 on T-47D cells [4]) was 58600 MFI.
